# Legend:
# [1] = target: HLA-A*01:01; assay: IEDB peptide-MHC binding, purified MHC/competitive/radioactivity; filed as Kd, often an IC50 or EC50 that approximates it; ≥ and ≤ were set here for values at or beyond the usual limits of such assays
# [2] = target: HLA-A*23:01; assay: as above
# [3] = target: HLA-A*29:02; assay: as above
# [4] = target: HLA-A*30:02; assay: as above
# [5] = target: HLA-A*26:01; assay: as above
# [6] = target: HLA-A*24:02; assay: as above
# [7] = target: HLA-A*32:01; assay: as above
# [8] = target: HLA-B*08:01; assay: as above
# [9] = target: HLA-A*11:01; assay: as above; details: source organism: Vaccinia virus WR
# [10] = target: HLA-A*33:01; assay: as above
# [11] = target: HLA-A*31:01; assay: as above
# [12] = target: HLA-A*68:01; assay: as above; details: source organism: Vaccinia virus WR
# [13] = target: HLA-A*03:01; assay: as above; details: source organism: Vaccinia virus WR
# [14] = target: HLA-B*40:01; assay: as above
# [15] = target: HLA-B*44:02; assay: as above
# [16] = target: HLA-B*44:03; assay: as above
# [17] = target: HLA-A*02:01; assay: IEDB peptide-MHC binding, purified MHC/competitive/fluorescence; ≥ and ≤ were set here for values at or beyond the usual limits of such assays; details: source organism: Vaccinia virus WR
# [18] = target: HLA-A*24:02; assay: as above; details: source organism: Vaccinia virus WR
# [19] = target: HLA-A*30:01; assay: IEDB peptide-MHC binding, purified MHC/competitive/radioactivity; filed as Kd, often an IC50 or EC50 that approximates it; ≥ and ≤ were set here for values at or beyond the usual limits of such assays
# [20] = source organism: Mammarenavirus juninense
# [21] = source organism: Dengue virus 4 Philippines/H241/1956
# [22] = source organism: Dengue virus 1 Brazil/97-11/1997
# [23] = source organism: Dengue virus 2 Jamaica/1409/1983
# [24] = source organism: Vaccinia virus WR
# [25] = source organism: SARS coronavirus Tor2
# [26] = source organism: Dengue virus 3 Martinique/1243/1999
# [27] = source organism: Dengue virus 4 Dominica/814669/1981
# [28] = source organism: Vaccinia virus Copenhagen
# [29] = source organism: Mammarenavirus guanaritoense
# [30] = source organism: Mammarenavirus caliense
# [31] = source organism: Mammarenavirus lassaense
# [32] = source organism: Dengue virus 2 Peru/IQT2913/1996
sequence,measurement,setting,value
KAEVSMHEV,Kd,[1]; [20],17500 nM
same,Kd,[2]; [20],≥ 68600 nM
same,Kd,[3]; [20],≥ 78900 nM
same,Kd,[4]; [20],≥ 51900 nM
same,Kd,[5]; [20],≥ 77900 nM
same,Kd,[6]; [20],≥ 77500 nM
KITGNLVQI,Kd,[7]; [21],2710 nM
KKMIRPQPM,Kd,[8]; [22],188 nM
KSYAQMWQLM,Kd,[7]; [22],89.9 nM
KTPVESWEEV,Kd,[7]; [23],1620 nM
KTWGKAKML,Kd,[7]; [23],39.2 nM
KTWMINIMI,Kd,[7]; [24],≥ 77800 nM
LFARTRSMW,Kd,[1]; [25],≥ 78100 nM
same,Kd,[2]; [25],488 nM
same,Kd,[3]; [25],10200 nM
same,Kd,[4]; [25],≥ 83300 nM
same,Kd,[5]; [25],≥ 77900 nM
same,Kd,[6]; [25],146 nM
LVKESMASLK,Kd,[9],11.3 nM
same,Kd,[10]; [24],394 nM
same,Kd,[11]; [24],64.5 nM
same,Kd,[12],0.437 nM
same,Kd,[3]; [24],≥ 53600 nM
same,Kd,[13],4.1 nM
LVSTQEFRY,Kd,[1]; [25],30.8 nM
same,Kd,[2]; [25],10900 nM
same,Kd,[3]; [25],6.84 nM
same,Kd,[4]; [25],5.95 nM
same,Kd,[5]; [25],1760 nM
same,Kd,[6]; [25],12700 nM
METLLLLGLM,Kd,[14]; [26],1020 nM
same,Kd,[15]; [26],62.4 nM
same,Kd,[16]; [26],2650 nM
MFGGVSWMIR,Kd,[10]; [27],14.8 nM
same,Kd,[11]; [27],7.52 nM
same,Kd,[7]; [27],1430 nM
MMRNRTKPI,Kd,[8]; [28],1.49 nM
MWSFNPETNI,Kd,[1]; [25],≥ 70400 nM
same,Kd,[2]; [25],407 nM
same,Kd,[3]; [25],13300 nM
same,Kd,[4]; [25],≥ 24700 nM
same,Kd,[5]; [25],≥ 39100 nM
same,Kd,[6]; [25],551 nM
MYASALVLL,Kd,[1]; [25],≥ 66000 nM
same,Kd,[2]; [25],≥ 46400 nM
same,Kd,[3]; [25],≥ 22500 nM
same,Kd,[4]; [25],≥ 33500 nM
same,Kd,[5]; [25],4620 nM
same,Kd,[6]; [25],≥ 65300 nM
NDLKYSWKTW,Kd,[15]; [21],2720 nM
same,Kd,[7]; [21],8890 nM
NVEYRFLVI,IC50,[17],≥ 144000 nM
same,IC50,[18],13700 nM
same,Kd,[8]; [24],235 nM
NYLRKRVMF,Kd,[1]; [25],≥ 78100 nM
same,Kd,[2]; [25],11200 nM
same,Kd,[3]; [25],3270 nM
same,Kd,[4]; [25],9150 nM
same,Kd,[5]; [25],≥ 60200 nM
same,Kd,[6]; [25],18000 nM
PTMEIEDQEY,Kd,[1]; [29],17.2 nM
same,Kd,[19]; [29],≥ 70400 nM
same,Kd,[3]; [29],11300 nM
same,Kd,[4]; [29],8840 nM
same,Kd,[5]; [29],1140 nM
same,Kd,[7]; [29],≥ 49800 nM
PYENLLYKI,Kd,[2]; [30],9.86 nM
same,Kd,[3]; [30],≥ 52400 nM
same,Kd,[6]; [30],253 nM
QEVPFCSHHF,Kd,[14]; [21],4870 nM
same,Kd,[15]; [21],12.2 nM
same,Kd,[16]; [21],180 nM
QMQRKHGGML,Kd,[8]; [22],436 nM
RLGYILEEI,Kd,[7]; [27],1110 nM
RQIFIHYSV,Kd,[7]; [28],1.04 nM
RRVTRKHMIL,Kd,[8]; [21],64 nM
RTYCIEASI,Kd,[7]; [21],19.2 nM
RVRNIIASI,Kd,[19]; [24],0.103 nM
same,Kd,[8]; [24],21.7 nM
same,Kd,[7]; [24],1.04 nM
RVYVGNVAW,Kd,[7]; [24],1.08 nM
RYWYLNHTV,Kd,[1]; [31],≥ 28200 nM
same,Kd,[2]; [31],15.3 nM
same,Kd,[3]; [31],≥ 38600 nM
same,Kd,[4]; [31],0.603 nM
same,Kd,[5]; [31],≥ 77900 nM
same,Kd,[6]; [31],76.8 nM
SEMIIPKNFA,Kd,[14]; [23],8440 nM
same,Kd,[15]; [23],12 nM
same,Kd,[16]; [23],25 nM
SIHEKFWPL,Kd,[8]; [24],1.36 nM
SMLSIFNIV,Kd,[8]; [24],≥ 77700 nM
SPKERLPYI,Kd,[8]; [24],1040 nM
SSSPTILDNY,Kd,[1]; [29],22.6 nM
same,Kd,[19]; [29],≥ 21000 nM
same,Kd,[3]; [29],99 nM
same,Kd,[4]; [29],42.5 nM
same,Kd,[5]; [29],17800 nM
same,Kd,[7]; [29],≥ 69900 nM
STLIFFVII,Kd,[7]; [24],17.8 nM
TELRYSWKTW,Kd,[15]; [32],7.9 nM
same,Kd,[16]; [32],33 nM
same,Kd,[7]; [32],2420 nM
TVYAKFASL,Kd,[8]; [24],1.64 nM
YSIFLIFSI,Kd,[7]; [28],951 nM
